In patent US7838231 (REGENTS OF THE UNIVERSITY OF MICHIGAN, dated 2010):
Each block holds one binder with its values, some of them ahead of it.

Target: T1, full-length human nephrocystin-5 (NPHP5), yeast two-hybrid fusion (human, UniProt Q15051 1-598)
T1 construct: Full-length NPHP5 cDNA (598 amino acid residues) fused to a GAL4 domain; also called KIAA0036
T1 sequence: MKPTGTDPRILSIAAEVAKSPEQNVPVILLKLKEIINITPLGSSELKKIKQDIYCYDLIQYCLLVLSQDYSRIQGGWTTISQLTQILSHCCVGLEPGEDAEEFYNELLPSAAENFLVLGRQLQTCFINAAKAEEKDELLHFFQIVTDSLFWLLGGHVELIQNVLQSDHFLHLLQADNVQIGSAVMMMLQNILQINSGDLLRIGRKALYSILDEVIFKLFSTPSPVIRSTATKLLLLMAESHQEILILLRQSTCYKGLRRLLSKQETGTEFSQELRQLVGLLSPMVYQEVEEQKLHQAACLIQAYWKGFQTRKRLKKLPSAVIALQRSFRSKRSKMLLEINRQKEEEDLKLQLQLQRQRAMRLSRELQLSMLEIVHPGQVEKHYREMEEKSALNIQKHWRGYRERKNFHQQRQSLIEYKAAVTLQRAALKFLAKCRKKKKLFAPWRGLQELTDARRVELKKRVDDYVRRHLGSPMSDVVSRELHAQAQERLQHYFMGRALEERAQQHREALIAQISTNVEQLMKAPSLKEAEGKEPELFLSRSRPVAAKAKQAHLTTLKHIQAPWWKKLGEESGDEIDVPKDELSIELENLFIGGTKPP
Assay: direct yeast two-hybrid assay

B3: BBS8, human full length, yeast two-hybrid prey (other, UniProt Q8TAM2 1-541, looked up, not shown: large carriers)
chain: MSSEMEPLLLAWSYFRRRKFQLCADLCTQMLEKSPYDQEPDPELPVHQAAWILKARALTEMVYIDEIDVDQEGIAEMMLDENAIAQVPRPGTSLKLPGTNQTGGPSQAVRPITQAGRPITGFLRPSTQSGRPGTMEQAIRTPRTAYTARPITSSSGRFVRLGTASMLTSPDGPFINLSRLNLTKYSQKPKLAKALFEYIFHHENDVKTIHLEDVVLHLGIYPFLLRNKNHIEKNALDLAALSTEHSQYKDWWWKVQIGKCYYRLGMYREAEKQFKSALKQQEMVDTFLYLAKVYVSLDQPVTALNLFKQGLDKFPGEVTLLCGIARIYEEMNNMSSAAEYYKEVLKQDNTHVEAIACIGSNHFYSDQPEIALRFYRRLLQMGIYNGQLFNNLGLCCFYAQQYDMTLTSFERALSLAENEEEAADVWYNLGHVAVGIGDTNLAHQCFRLALVNNNNHAEAYNNLAVLEMRKGHVEQARALLQTASSLAPHMYEPHFNFATISDKIGDLQRSYVAAQKSEAAFPDHVDTQHLIKQLRQHFAML
- binding result: no binding

B4: BBS5, human full length, yeast two-hybrid prey (other, UniProt Q8N3I7 1-341, looked up, not shown: large carriers)
chain: MSVLDALWEDRDVRFDLSAQQMKTRPGEVLIDCLDSIEDTKGNNGDRGRLLVTNLRILWHSLALSRVNVSVGYNCILNITTRTANSKLRGQTEALYILTKCNSTRFEFIFTNLVPGSPRLFTSVMAVHRAYETSKMYRDFKLRSALIQNKQLRLLPQEHVYDKINGVWNLSSDQGNLGTFFITNVRIVWHANMNDSFNVSIPYLQIRSIKIRDSKFGLALVIESSQQSGGYVLGFKIDPVEKLQESVKEINSLHKVYSASPIFGVDYEMEEKPQPLEALTVEQIQDDVEIDSDGHTDAFVAYFADGNKQQDREPVFSEELGLAIEKLKDGFTLQGLWEVMS
- binding result: no binding

B5: BBS1, human full length, yeast two-hybrid prey (other, UniProt Q8NFJ9 1-593, looked up, not shown: large carriers)
chain: MAAASSSDSDACGAESNEANSKWLDAHYDPMANIHTFSACLALADLHGDGEYKLVVGDLGPGGQQPRLKVLKGPLVMTESPLPALPAAAATFLMEQHEPRTPALALASGPCVYVYKNLRPYFKFSLPQLPPNPLEQDLWNQAKEDRIDPLTLKEMLESIRETAEEPLSIQSLRFLQLELSEMEAFVNQHKSNSIKRQTVITTMTTLKKNLADEDAVSCLVLGTENKELLVLDPEAFTILAKMSLPSVPVFLEVSGQFDVEFRLAAACRNGNIYILRRDSKHPKYCIELSAQPVGLIRVHKVLVVGSTQDSLHGFTHKGKKLWTVQMPAAILTMNLLEQHSRGLQAVMAGLANGEVRIYRDKALLNVIHTPDAVTSLCFGRYGREDNTLIMTTRGGGLIIKILKRTAVFVEGGSEVGPPPAQAMKLNVPRKTRLYVDQTLREREAGTAMHRAFQTDLYLLRLRAARAYLQALESSLSPLSTTAREPLKLHAVVQGLGPTFKLTLHLQNTSTTRPVLGLLVCFLYNEALYSLPRAFFKVPLLVPGLNYPLETFVESLSNKGISDIIKVLVLREGQSAPLLSAHVNMPGSEGLAAA
- binding result: no binding

Other lines, results leading:

- binding result: no binding
B1: BBS4, human full length, yeast two-hybrid prey (other, UniProt Q96RK4 1-519, looked up, not shown: large carriers)
chain: MAEERVATRTQFPVSTESQKPRQKKAPEFPILEKQNWLIHLHYIRKDYEACKAVIKEQLQETQGLCEYAIYVQALIFRLEGNIQESLELFQTCAVLSPQSADNLKQVARSLFLLGKHKAAIEVYNEAAKLNQKDWEISHNLGVCYIYLKQFNKAQDQLHNALNLNRHDLTYIMLGKIHLLEGDLDKAIEVYKKAVEFSPENTELLTTLGLLYLQLGIYQKAFEHLGNALTYDPTNYKAILAAGSMMQTHGDFDVALTKYRVVACAVPESPPLWNNIGMCFFGKKKYVAAISCLKRANYLAPFDWKILYNLGLVHLTMQQYASAFHFLSAAINFQPKMGELYMLLAVALTNLEDIENAKRAYAEAVHLDKCNPLVNLNYAVLLYNQGEKKNALAQYQEMEKKVSLLKDNSSLEFDSEMVEMAQKLGAALQVGEALVWTKPVKDPKSKHQTTSTSKPASFQQPLGSNQALGQAMSSAAAYRTLPSGAGGTSQFTKPPSLPLEPEPAVESSPTETSEQIREK

- binding result: no binding
B2: BBS6, human full length, yeast two-hybrid prey (other, UniProt Q9NPJ1 1-570, looked up, not shown: large carriers)
chain: MSRLEAKKPSLCKSEPLTTERVRTTLSVLKRIVTSCYGPSGRLKQLHNGFGGYVCTTSQSSALLSHLLVTHPILKILTASIQNHVSSFSDCGLFTAILCCNLIENVQRLGLTPTTVIRLNKHLLSLCISYLKSETCGCRIPVDFSSTQILLCLVRSILTSKPACMLTRKETEHVSALILRAFLLTIPENAEGHIILGKSLIVPLKGQRVIDSTVLPGILIEMSEVQLMRLLPIKKSTALKVALFCTTLSGDTSDTGEGTVVVSYGVSLENAVLDQLLNLGRQLISDHVDLVLCQKVIHPSLKQFLNMHRIIAIDRIGVTLMEPLTKMTGTQPIGSLGSICPNSYGSVKDVCTAKFGSKHFFHLIPNEATICSLLLCNRNDTAWDELKLTCQTALHVLQLTLKEPWALLGGGCTETHLAAYIRHKTHNDPESILKDDECTQTELQLIAEAFCSALESVVGSLEHDGGEILTDMKYGHLWSVQADSPCVANWPDLLSQCGCGLYNSQEELNWSFLRSTRRPFVPQSCLPHEAVGSASNLTLDCLTAKLSGLQVAVETANLILDLSYVIEDKN
